B1: C4b-binding protein β chain: plasma protein bound to fibrils (protein, UniProt P20851 18-252, looked up)
C4b-binding protein beta chain: SDAEHCPELPPVDNSIFVAKEVEGQILGTYVCIKGYHLVGKKTLFCNASKEWDNTTTECRLGHCPDPVLVNGEFSSSGPVNVSDKITFMCNDHYILKGSNRSQCLEDHTWAPPFPICKSRDCDPPGNPVHGYFEGNNFTLGSTISYYCEDRYYLVGVQEQQCVDGEWSSALPVCKLIQEAPKPECEKALLAFQESKNLCEAMENFMQQLKESGMTMEELKYSLELKKAELKAKLL
B2: C4b-binding protein α chain: plasma protein bound to fibrils (protein, UniProt P04003 49-597, looked up)
C4b-binding protein alpha …: NCGPPPTLSFAAPMDITLTETRFKTGTTLKYTCLPGYVRSHSTQTLTCNSDGEWVYNTFCIYKRCRHPGELRNGQVEIKTDLSFGSQIEFSCSEGFFLIGSTTSRCEVQDRGVGWSHPLPQCEIVKCKPPPDIRNGRHSGEENFYAYGFSVTYSCDPRFSLLGHASISCTVENETIGVWRPSPPTCEKITCRKPDVSHGEMVSGFGPIYNYKDTIVFKCQKGFVLRGSSVIHCDADSKWNPSPPACEPNSCINLPDIPHASWETYPRPTKEDVYVVGTVLRYRCHPGYKPTTDEPTTVICQKNLRWTPYQGCEALCCPEPKLNNGEITQHRKSRPANHCVYFYGDEISFSCHETSRFSAICQGDGTWSPRTPSCGDICNFPPKIAHGHYKQSSSYSFFKEEIIYECDKGYILVGQAKLSCSYSHWSAPAPQCKALCRKPELVNGRLSVDKDQYVEPENVTIQCDSGYGVVGPQSITCSGNRTWYPEVPKCEWETPEGCEQVLTGKRLMQCLPNPEDVKMALEVYKLSLEIEQLELQRDSARQSTLDKEL
B3: Ig γ -2 chain C region: plasma/CSF protein bound to fibrils (protein, UniProt P01859 1-395, looked up)
Immunoglobulin heavy constant …: ASTKGPSVFPLAPCSRSTSESTAALGCLVKDYFPEPVTVSWNSGALTSGVHTFPAVLQSSGLYSLSSVVTVPSSNFGTQTYTCNVDHKPSNTKVDKTVERKCCVECPPCPAPPVAGPSVFLFPPKPKDTLMISRTPEVTCVVVDVSHEDPEVQFNWYVDGVEVHNAKTKPREEQFNSTFRVVSVLTVVHQDWLNGKEYKCKVSNKGLPAPIEKTISKTKGQPREPQVYTLPPSREEMTKNQVSLTCLVKGFYPSDISVEWESNGQPENNYKTTPPMLDSDGSFFLYSKLTVDKSRWQQGNVFSCSVMHEALHNHYTQKSLSLSPELQLEESCAEAQDGELDGLWTTITIFITLFLLSVCYSATITFFKVKWIFSSVVDLKQTIVPDYRNMIRQGA
B4: Ig μ chain C region: plasma protein bound to fibrils (protein, UniProt P01871 1-474, looked up)
Immunoglobulin heavy constant …: GSASAPTLFPLVSCENSPSDTSSVAVGCLAQDFLPDSITFSWKYKNNSDISSTRGFPSVLRGGKYAATSQVLLPSKDVMQGTDEHVVCKVQHPNGNKEKNVPLPVIAELPPKVSVFVPPRDGFFGNPRKSKLICQATGFSPRQIQVSWLREGKQVGSGVTTDQVQAEAKESGPTTYKVTSTLTIKESDWLGQSMFTCRVDHRGLTFQQNASSMCVPDQDTAIRVFAIPPSFASIFLTKSTKLTCLVTDLTTYDSVTISWTRQNGEAVKTHTNISESHPNATFSAVGEASICEDDWNSGERFTCTVTHTDLPSPLKQTISRPKGVALHRPDVYLLPPAREQLNLRESATITCLVTGFSPADVFVQWMQRGQPLSPEKYVTSAPMPEPQAPGRYFAHSILTVSEEEWNTGETYTCVVAHEALPNRVTERTVDKSTEGEVSADEEGFENLWATASTFIVLFLLSLFYSTTVTLFKVK

Key:
Ab1 fibrils [1] = test system: T1, Ab1 fibrils; assay: Fibril incubation with plasma, quantitative MS/MS of bound proteins; assay type: binding, human; conditions: 50:1 w/w plasma protein:fibril
T1 construct: Synthetic amyloid β peptide 1–40 was purchased from Caslo Aps (Lyngby, Denmark); purchased Caslo Aps (Lyngby, Denmark); host or cells: synthetic peptide
Protocol: (§1) Plasma and CSF solutions were centrifuged (40,000 g, 20 min) to remove any aggregates. The protein concentration was determined using 280 nm absorbance assuming 1 Abs = 1 mg/mL. Samples with fibril material (20 μg), plasma (500 μg) or CSF (40 μg) proteins were prepared in 200 μL PBS buffer with 5 mM EDTA. Control samples (without fibril material) were prepared similarly. All samples were incubated at room temperature for one hour under gentle agitation. Fibrils and fibril-bound proteins were pelleted by centrifugation at 17,000 g for 30 minutes. The supernatant (175 μL) was removed and the aggregate was re-suspended in 175 μL PBS and pelleted again before further preparation for gel analysis and spin-filter assisted digest for quantitative MS/MS.
(§2) The fibril-protein pellets were transferred to spin-filters (0.22 μm), washed twice in PBS (100 μL) and once in 1 M NaCl (100 μL). The fibrils and fibril-bound proteins were dissolved by one-hour incubation in 100 μL 6 M guanidinium chloride followed by elution from the spin-filter. The eluted proteins were loaded onto a 3 kDa MWCO filter unit for filter-assisted unfolding, reduction, alkylation, and trypsin digestion. In brief, samples were washed twice in 8 M urea, once in 8 M urea with 50 mM DTT, once in 8 M urea with 50 mM iodoaceteamide, and twice in 8 M Urea. The filter units were dried by centrifugation (14,000 g in 30 minutes) after every addition. Trypsin digestion was carried out with 0.25 μg sequencing grade trypsin from Sigma Aldrich in 50 mM ammonium bicarbonate overnight at 37 °C. The tryptic peptides were collected by centrifugation, acidified with TFA (0.1%) and micro-purified using POROS R2 column material (Applied Biosystems) packed in P200 pipette tips (Sarstedt).
(§3) LC-MS/MS analyses were performed on an EASY-nLC II system (Thermo Fisher Scientific) connected to a TripleTOF 5600+ mass spectrometer (Sciex) equipped with a NanoSpray III source (Sciex) and operated under Analyst TF 1.6.0 control.
(§4) The micro-purified tryptic peptides were dissolved in 0.1% formic acid, injected and trapped on an in-house packed trap column (2 cm × 100 μm I.D) with RP ReproSil-Pur C18-AQ 3 μm resin (Dr. Maisch GmbH). Peptides were eluted from the trap column and separated on a 15 cm analytical column (75 μm i.d.) packed in-house in a pulled emitter with RP ReproSil-Pur C18-AQ 3 μm resin (Dr. Maisch GmbH). Elution from the analytical column was performed with a linear gradient from 5% to 35% phase B (90% acetonitrile with 0.1% formic acid) over 20 min for protein identification and 50 min for quantitative analysis, respectively.
(§5) All samples were analysed three times, yielding nine MS/MS experiments for each fibril for both plasma and CSF. For the area-based extracted ion chromatogram (XIC) quantification, the acquisition method was set up as an information-dependent acquisition (IDA) experiment collecting up to 25 MS/MS spectra in each 1.6 sec cycle using an exclusion window of 6 sec.
(§6) XIC quantification was based on the average ion intensity of the three most abundant peptides for each protein. Only proteins quantified in at least four out of nine MS/MS experiments per fibril were included in the quantification. The total ion scores were visualized after grouping the proteins according to function (Figure S11).
(§7) For each MS/MS experiment, the ion intensities of the individual proteins were normalized to the total ion intensity of that MS/MS experiment to achieve a relative protein composition. The contribution of each protein was averaged over all nine MS/MS experiments (Tables 1 and 2).

C-36 fibrils [2] = biological target: T2, C-36 fibrils (Homo sapiens, UniProt P01009); assay: as above; assay type: binding; conditions: 50:1 w/w plasma protein:fibril
T2 construct: the 36 residue C-terminal fragment of α1-antitrypsin (C-36)
T2 sequence (P01009 383-418 limits assumed): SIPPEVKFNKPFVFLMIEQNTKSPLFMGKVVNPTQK
Protocol: as §1, with “Samples with fibril material (20 μg), plasma (500 μg) or CSF (40 μg) proteins were prepared in 200 μL PBS buffer with 5 mM EDTA.” left out
as §2, §3, §4, §5, §6, §7

glucagon fibrils [3] = biological target: T3, glucagon fibrils (Homo sapiens, UniProt P01275); assay: as above; assay type: binding; conditions: 50:1 w/w plasma protein:fibril
T3 construct: fibrils of the peptide hormone glucagon
T3 sequence (P01275 53-81 limits assumed): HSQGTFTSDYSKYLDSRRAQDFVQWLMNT
Protocol: as §1, with “Samples with fibril material (20 μg), plasma (500 μg) or CSF (40 μg) proteins were prepared in 200 μL PBS buffer with 5 mM EDTA.” left out
as §2, §3, §4, §5, §6, §7

FAS4-AD aggregates [4] = test system: T4, FAS4-AD aggregates; assay: as above; assay type: binding, human; set-up: key to Identification status of plasma protein bound: FAS4-AD: *: Identified, but not quantified; —: Not identified in any of the samples; conditions: for Relative composition of plasma proteins bound: FAS4-AD: 50:1 w/w plasma protein:fibril
T4 construct: aggregates of a mutated version of the FAS1-4 domain of TGFBIp
Protocol: as §1, with “Samples with fibril material (20 μg), plasma (500 μg) or CSF (40 μg) proteins were prepared in 200 μL PBS buffer with 5 mM EDTA.” left out
as §2, §3, §4, §5, §6, §7

Ab2 fibrils [5] = test system: T5, Ab2 fibrils; assay: as above; assay type: binding, human; conditions: 50:1 w/w plasma protein:fibril
T5 construct: Two structurally distinct fibrils of the Aβ(1–40) peptide associated with AD
Protocol: as §1, with “Samples with fibril material (20 μg), plasma (500 μg) or CSF (40 μg) proteins were prepared in 200 μL PBS buffer with 5 mM EDTA.” left out
as §2, §3, §4, §5, §6, §7

αSN fibrils = αSN fibrils (Homo sapiens, UniProt P37840); assay: as above; assay type: binding; conditions: 50:1 w/w plasma protein:fibril
Protocol: as §1, with “Samples with fibril material (20 μg), plasma (500 μg) or CSF (40 μg) proteins were prepared in 200 μL PBS buffer with 5 mM EDTA.” left out
as §2, §3, §4, §5, §6, §7

C-36 fibrils [6] = biological target: T2, C-36 fibrils; assay: Fibril incubation with CSF, quantitative MS/MS of bound proteins; assay type: binding; conditions: 4:1 w/w CSF protein:fibril
Protocol: as §1, with “Samples with fibril material (20 μg), plasma (500 μg) or CSF (40 μg) proteins were prepared in 200 μL PBS buffer with 5 mM EDTA.” left out
as §2, §3, §4, §5, §6, §7

FAS4-AD aggregates [7] = test system: T4, FAS4-AD aggregates; assay: as above; assay type: binding, human; set-up: key to Identification status of CSF protein bound: FAS4-AD: *: Identified, but not quantified; —: Not identified in any of the samples; conditions: symbol cells
Protocol: as §1, with “Samples with fibril material (20 μg), plasma (500 μg) or CSF (40 μg) proteins were prepared in 200 μL PBS buffer with 5 mM EDTA.” left out
as §2, §3, §4, §5, §6, §7

Ab2 fibrils [8] = test system: T5, Ab2 fibrils; assay: as above; assay type: binding, human; conditions: 4:1 w/w CSF protein:fibril
Protocol: as §1, with “Samples with fibril material (20 μg), plasma (500 μg) or CSF (40 μg) proteins were prepared in 200 μL PBS buffer with 5 mM EDTA.” left out
as §2, §3, §4, §5, §6, §7

glucagon fibrils [9] = biological target: T3, glucagon fibrils; assay: as above; assay type: binding; conditions: 4:1 w/w CSF protein:fibril
Protocol: as §1, with “Samples with fibril material (20 μg), plasma (500 μg) or CSF (40 μg) proteins were prepared in 200 μL PBS buffer with 5 mM EDTA.” left out
as §2, §3, §4, §5, §6, §7

Ab1 fibrils [10] = test system: T1, Ab1 fibrils; assay: as above; assay type: binding, human; conditions: 4:1 w/w CSF protein:fibril
Protocol: as §1, with “Samples with fibril material (20 μg), plasma (500 μg) or CSF (40 μg) proteins were prepared in 200 μL PBS buffer with 5 mM EDTA.” left out
as §2, §3, §4, §5, §6, §7

Row | Molecule | Relative composition of plasma proteins bound: Ab1 (Ab1 fibrils [1]) | Relative composition of plasma proteins bound: C-36 (C-36 fibrils [2]) | Relative composition of plasma proteins bound: Glucagon (glucagon fibrils [3]) | Identification status of plasma protein bound: FAS4-AD (FAS4-AD aggregates [4]; symbol cells) | Relative composition of plasma proteins bound: Ab2 (Ab2 fibrils [5]) | Relative composition of plasma proteins bound: αSN (αSN fibrils) | Relative composition of plasma proteins bound: FAS4-AD (FAS4-AD aggregates [4]) | Relative composition of CSF proteins bound: C-36 (C-36 fibrils [6]) | Identification status of CSF protein bound: FAS4-AD (FAS4-AD aggregates [7]) | Relative composition of CSF proteins bound: Ab2 (Ab2 fibrils [8]) | Relative composition of CSF proteins bound: Glucagon (glucagon fibrils [9]) | Relative composition of CSF proteins bound: Ab1 (Ab1 fibrils [10])
1 | B1 | 0.9 ± 0.1 % of total protein | 0.7 ± 0.1 % of total protein | 0.5 ± 0.1 % of total protein | * | 1.3 ± 0.3 % of total protein | 1.3 ± 0.4 % of total protein | – | – | – | – | – | –
2 | B2 | 6.1 ± 0.2 % of total protein | 5.5 ± 0.3 % of total protein | 3.0 ± 0.1 % of total protein | – | 9.9 ± 0.5 % of total protein | 7.4 ± 2.5 % of total protein | 2.7 ± 0.9 % of total protein | – | – | – | – | –
3 | B3 | 0.9 ± 0.1 % of total protein | 1.2 ± 0.2 % of total protein | 0.9 ± 0.1 % of total protein | – | 0.9 ± 0.1 % of total protein | 1.2 ± 0.8 % of total protein | – | 1.0 ± 0.3 % of total protein | * | 2.0 ± 0.3 % of total protein | 1.1 ± 0.3 % of total protein | 1.7 ± 0.2 % of total protein
4 | B4 | 0.6 ± 0.0 % of total protein | 0.4 ± 0.1 % of total protein | 0.8 ± 0.1 % of total protein | – | 0.7 ± 0.2 % of total protein | 0.5 ± 0.2 % of total protein | 2.6 ± 1.5 % of total protein | – | – | – | – | –

— publication PMC6405930, “Conservation of the Amyloid Interactome Across Diverse Fibrillar Structures” (Scientific Reports, 2019)
